Data published in PMC3771917, “The Crystal Structure of the Orphan Nuclear Receptor NR2E3/PNR Ligand Binding Domain Reveals a Dimeric Auto-Repressed Conformation” (PLoS ONE, 2013).

B1: NR2E3 LBD (residues 192-410), wild type, as Gal4DBD–NR2E3LBD and VP16AD–NR2E3LBD [human] / itself (parent complex)
chain: DENIDVTSNDPEFPSSPYSSSSPCGLDSIHETSARLLFMAVKWAKNLPVFSSLPFRDQVILLEEAWSELFLLGAIQWSLPLDSCPLLAPPEASAAGGAQGRLTLASMETRVLQETISRFRALAVDPTEFACMKALVLFKPETRGLKDPEHVEALQDQSQVMLSQHSKAHHPSQPVRFGKLLLLLPSLRFITAERIELLFFRKTIGNTPMEKLLCDMFKN

Variants of: B1
Assay: mammalian two hybrid assay; pBind-PNR L372/375R + pACT-PNR L372/375R; parent: 0.42; read off a plot
In the case of DENIDVTSNDPEFPSSPYSSSSPCGLDSIHETSARLLFMAVKWAKNLPVFSSLPFRDQVILLEEAWSELFLLGAIQWSLPLDSCPLLAPPEASAAGGAQGRLTLASMETRVLQETISRFRALAVDPTEFACMKALVLFKPETRGLKDPEHVEALQDQSQVMLSQHSKAHHPSQPVRFGKLRLLRPSLRFITAERIELLFFRKTIGNTPMEKLLCDMFKN [chain 1 L181R, chain 1 L184R], the response is reported as about 0.055 RLU.

Variants of: B1
Assay: mammalian two hybrid assay; pBind-PNR L372R + pACT-PNR L372R; parent: 0.42; read off a plot
DENIDVTSNDPEFPSSPYSSSSPCGLDSIHETSARLLFMAVKWAKNLPVFSSLPFRDQVILLEEAWSELFLLGAIQWSLPLDSCPLLAPPEASAAGGAQGRLTLASMETRVLQETISRFRALAVDPTEFACMKALVLFKPETRGLKDPEHVEALQDQSQVMLSQHSKAHHPSQPVRFGKLRLLLPSLRFITAERIELLFFRKTIGNTPMEKLLCDMFKN [chain 1 L181R] gave a response of about 0.045 RLU.

Variants of: B1
Assay: mammalian two hybrid assay; pBind-PNR L375R + pACT-PNR L375R; parent: 0.42; read off a plot
DENIDVTSNDPEFPSSPYSSSSPCGLDSIHETSARLLFMAVKWAKNLPVFSSLPFRDQVILLEEAWSELFLLGAIQWSLPLDSCPLLAPPEASAAGGAQGRLTLASMETRVLQETISRFRALAVDPTEFACMKALVLFKPETRGLKDPEHVEALQDQSQVMLSQHSKAHHPSQPVRFGKLLLLRPSLRFITAERIELLFFRKTIGNTPMEKLLCDMFKN [chain 1 L184R] gave a response of about 0.045 RLU.
